Experimental data reported in the nanobody polyreactivity screen of Harvey et al. (2022).

Test: yeast display, Sf9 membrane polyspecificity reagent, FACS + sequencing; frameworks hold sequencing errors
Summary of the method: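 A nanobody's polyreactivity label depends on the gate it was sorted from. Yeast display cells were stained with 10% biotinylated, detergent-solubilized Sf9 membrane reagent for 1 hour at 4 °C, enriched on streptavidin microbeads and sorted by FACS. The low and high (top ~1%) gates were set on anti-HA fluorescence for expression and streptavidin fluorescence for reagent binding.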

| Sequence | polyreactivity (PSR sort gate) |
| --- | --- |
| QVQLVESGGGLVQAGGSLRLSCAASGSTLYFYAMGGYRQAPGKERELVADITWSGGSTYYADSVKGRFTISRDNAKNTVYLQMNSLKPEDTAVYYCNADDWSTYWYGYPGYVYWGQGTQVTVSS | high polyreactivity |
| QVQLVESGGGLVQAGGSLRLSCAASGSTLYGNVMGWYRQAPGKERELVATINRGGSTNYADSVKGRFTISRDNAKNNVYLQMNSLKPEDTAVYYCAADYYGYWYDYEGDHWGQGTQVTVSS | low polyreactivity |
| QVQLVESGGGLVQAGGSLRLSCAASGSTLYHNAMGWYRQAPGKERELVAIINYSGDNTYYADSVKGRFTISRDNAKNTVFLQMNSLKPEDTAVYYCAADLYERGRQAWQYDYWGQGTQVTVSS | low polyreactivity |
| QVQLVESGGGLVQAGGSLRLSCAASGSTLYHYDMGWYRQAPGKERELVAAITTSGDSTYYADSVKGRFTISRDNAKNTVYLQMNSLKPEDTAVYYCNADVFKTVFYIDRYYYWGQGTQVTVSS | low polyreactivity |
| QVQLVESGGGLVQAGGSLRLSCAASGSTLYIYAMGWYRQAPGKERELVAAITSSTGSTYADSVKGRFTISRDNAKNTVYLQMNSLKPEDTAVFVCNAGGPLQPYDYWGQGTQVTVSS | low polyreactivity |
| QVQLVESGGGLVQAGGSLRLSCAASGSTLYPYAMGWYRQAPGKERELVAVITKSGGRTYYADSVKGRFTISRDNAKNTVYLQMNSLKPEDTAVYYCAAKSTYGRLGGDSWGQGTQVTVSS | high polyreactivity |
| QVQLVESGGGLVQAGGSLRLSCAASGSTLYRNAMGWYRQAPGKERELVAAINYRGTRTYYADSVKGRFTISRDNAKNTVYLQMNSLKPEDTAVYYCAKDYSQFVTYPYDYWGQGTQVTVSS | low polyreactivity |
| QVQLVESGGGLVQAGGSLRLSCAASGSTLYWYAMGWYRQAPGKERELVAVITSSGVSTYYADSVKGRFTISRDNAKNTVYLQMNSLKPEDTAVYYCNAKWYGWQRGTVKYDYWGQGTQVTVSS | low polyreactivity |
| QVQLVESGGGLVQAGGSLRLSCAASGSTLYYNAMGWYRQAPGKERELVAAITSGGSTSYADSVKGRFTISRDNAKNTVSFQMYSLKPEDTAVYYCAAVFYRRFDNWGQGTQVTVSS | low polyreactivity |
| QVQLVESGGGLVQAGGSLRLSCAASGSTNGRYAMGWYRQAPGKERELVAAISYSGGSTYYADTVKGRFTISRDNAKNTVYLQMNSLKPEDTAVYYCAAQYVRKYRVSRGYNYWGQGTQVTVSS | high polyreactivity |
| QVQLVESGGGLVQAGGSLRLSCAASGSTRIYAMGWYRQAPGKERELVAAISWTGGRTYYADSVKGRFTISRDNAKNTVYLQMNSLKPEDTAVYYCAAKGSGRDYWGQGTQVTVSS | high polyreactivity |
| QVQLVESGGGLVQAGGSLRLSCAASGSTRRYAMGWYRQAPGKERELVAAISSRGGSTYYADSVKGRFTISRDNAKNTVYLQMNSLKPEDTAVYYCAARTTRGPTFGYWGQGTQVTVSS | high polyreactivity |
| QVQLVESGGGLVQAGGSLRLSCAASGSTSALYAMGWYRQAPGKERELVATITRSGTTKYADSVKGRFTISRDNAKNTVYLQMNSLKPEDTAVYYCNTDTYFPLYDYWGQGTQVTVSS | low polyreactivity |
| QVQLVESGGGLVQAGGSLRLSCAASGSTSARYAMGWYRQAPGKERELVATITRSGTTKYADSVKGRFTISRDNAKNTVYLQMNSLKPEDTAVYYCNTDTYFPLYDYWGQGTQVTVSS | low polyreactivity |
| QVQLVESGGGLVQAGGSLRLSCAASGSTSESNAMGWYRQAPGKERELVAAIRSSGGGTYYADSVKGRFTISRDNAKNTVYLQMNSLKPEDTAVYYCAKDVPEDYEFYYWGQGTQVTVSS | low polyreactivity |
| QVQLVESGGGLVQAGGSLRLSCAASGSTSGKYGMGWYRQAPGKVRELVAGITKGGGGTYYADSVKGRFTISRDNAKNTVYLQMHSLKPEDTAVYYCAKYYGSGYYIYDYWGQGTQVTVSS | low polyreactivity |
| QVQLVESGGGLVQAGGSLRLSCAASGSTSLSYVKGWYRQAPGKERELVATITSSGGSTYYADSVKGRFTISRDNAKNTDYLQMNSLKQEDPAVYYCNARSYIYPFSPTSYYRYYWGQGTQVTGSS | high polyreactivity |
| QVQLVESGGGLVQAGGSLRLSCAASGSTSNLYAMGWYIQAPGKERELVAAITSIDGGTYYADSVKGRFTISRDNAKNTVYLQMNSLKAEDTAVYYCNAEDRFFYWGGYDYWGQGTQVTVSS | low polyreactivity |
| QVQLVESGGGLVQAGGSLRLSCAASGSTSPDNAMGWYRPAQGKERELVAAISSGGYTYADSVKGRFTISRDNAKNTVYLQMNSLKPEDTSVYYCAKDDLYSPAAGGGYWGEGTQVTVSS | low polyreactivity |
| QVQLVESGGGLVQAGGSLRLSCAASGSTSPGYAMGWYRQAPGKERELVAAITFRGTRTYYADSVKGRFTISRDNAKNTVYLQMNSLKPEDTAVFYCNVVGYGPNRGRVDYWGQGTQVTVSS | high polyreactivity |
| QVQLVESGGGLVQAGGSLRLSCAASGSTSPLYAMGWYRQAPGKERELVAAISWSTGSTYYADSVKGRFTISRDNAKNTVYLQMNSLKPEDTAVYYCAADYWFRYGTYEYWGQGTQVTVSS | high polyreactivity |
| QVQLVESGGGLVQAGGSLRLSCAASGSTSPNAMGWYRQAPGKERELVAAIWSGGTYYADSVKGRFTISRDNAKNTVYLQLNSLKPEDTAVYYCAVTGVYRGFRYGYLGQGTQVTVSS | low polyreactivity |

| Sequence | polyreactivity (PSR sort gate) |
| --- | --- |
| QVQLVESGGGLVQAGGSLRLSCAASGSTSQRNAMGWYRQAPGKERELVAAISRSGGSTSYADSVKGRFTISRDNAKNTVYLQMNSLKPEDTAVYYCNTDRRIYRVWYNYWGQGTQVTVSS | high polyreactivity |
| QVQLVESGGGLVQAGGSLRLSCAASGSTSRGYAMGWYRPAPGKERELVASITLSGGNTYYADSVKGRFTISRDSAKNTVYFQMYSLKPVDTAVYYCAADDRGSSYGHFTVEYGNWGQGTQVTVSS | low polyreactivity |
| QVQLVESGGGLVQAGGSLRLSCAASGSTSRGYAMGWYRQAPGEERELVASITLSGGNTYYADSVKGRFTISRDNAKNTVYLQMNSLKPEDTAVYYCAADDRGSSYGHFTVEYGYWGQGTQVTVSS | low polyreactivity |
| QVQLVESGGGLVQAGGSLRLSCAASGSTSRYAMGWYRQAPGKERELVAAITRSGGTTYYADSVKGRFTISRDNAKNTVYLQMNSLKPEDTAVYYCATSDRQVKYDYWGQGTQVTVSS | low polyreactivity |
| QVQLVESGGGLVQAGGSLRLSCAASGSTSSVNAMGWYRQAPGKEREFVATISFGGGRRYYADSVKGRFTISRDNAKNTVYLQMNSLKPEDTAVYYCAAVGSRWFSQTWRDYWGQGTQVTVSS | high polyreactivity |
| QVQLVESGGGLVQAGGSLRLSCAASGSTSTYYAMGWYRQAPGKERELVATISSTGNTKYADSVKGRFTISRDNAKNTVYLQMNSLKPEDTAVYYCNKRRSARFSSWGRVSYDYWGQGTQVTVSS | high polyreactivity |
| QVQLVESGGGLVQAGGSLRLSCAASGSTSVGNAMGWSRQAPGKERELVAAISRIGGTTYYADSVKGRFTISRDNAKNTVYLQMNSLKPEDPAVYYCNVLKRYWSGRVDYWGQGTQVTVSS | high polyreactivity |
| QVQLVESGGGLVQAGGSLRLSCAASGSTSVQYAMGWYRQAPGKERELVAAIDRSGGSTSYADSVKGRFTISRDNAKHTVYLQMNSLKPEDTAVYYCNADVHNRGWPYDYWGQGTQVTVSS | low polyreactivity |
| QVQLVESGGGLVQAGGSLRLSCAASGSTSVTNAMGWYRQAPGKEREFVATINYSGTSTYYADSVKGRFTISRDNAKNTVYLQMNSLKPEDTAVYYCNAHDFGFYRFSLPGYDYWGQGTQVTVSS | low polyreactivity |
| QVQLVESGGGLVQAGGSLRLSCAASGSTSYPYAMGWYRQAPGKERELVATITSGGRTNYADSVKGRFTISRDNAKNTVYLQMNSLKPEDTAVYYCNARFYRWRSYGYDYWGQGTQVTVSS | high polyreactivity |
| QVQLVESGGGLVQAGGSLRLSCAASGSTSYTNAMGWYRPAPGKERELVAGITRSGDSTYYADSVKGRFTISRDNAKNTVYLQMNSLKPEDTAVYYCAADIGDYWWGYYTGYYYWGQGTQVTVSS | high polyreactivity |
| QVQLVESGGGLVQAGGSLRLSCAASGSTSYYYAMGWYRQAPGKERELVAAISYSGGRTYYADSVKGRFTISRDNAKNTVYLQMNSLKPEDTAVYYCAKTFRGQPYLRYRYYYWGQGTQVTVSS | high polyreactivity |
| QVQLVESGGGLVQAGGSLRLSCAASGSTTHYYAMGWYRQAPGKEWELVASITWSVGSTYYADSVKGRFTISRDNAKNTVYLQMNSLKPEVTAVYYCAGRPFPRRYDYWGQGTQVTVSS | low polyreactivity |
| QVQLVESGGGLVQAGGSLRLSCAASGSTVGANAMGWYRQAPGKERELVATISSGGRTYYADSVKGRFTISRDNAKNTVYLQMNSLKPEDTAVYYCNAGADYTYVYISVYVLYDYWGQGTQVTVSS | low polyreactivity |
| QVQLVESGGGLVQAGGSLRLSCAASGSTVKYAMGWYRQAPGKDRELVASIRRSGGSTYYADSVKGRFTISRDNAMNTVYLQMNRLKPEDTAVYYCNARFPYNWRYDYWGQGTQVTVSS | high polyreactivity |
| QVQLVESGGGLVQAGGSLRLSCAASGSTVPQYTMGWYRQAPGKERELVAAITKSGGSTYYADSVKGRFTISRDNAKNTVYLQMNSLKPEDTAVYYCNRRWGWRLYDYWGQGTQVTVSS | high polyreactivity |
| QVQLVESGGGLVQAGGSLRLSCAASGSTVTYNTMGWYIQAPGKERELVAAISSGGSTYYADSVKGRFTISRDNAKNTVYLQMNSLKPEDTAVYYCAAEHYDYPYDYYCGQGTQVTVSS | high polyreactivity |
| QVQLVESGGGLVQAGGSLRLSCAASGSTVYHNAMGRYRQAPGKERELVAAITWSGSRTYYADSVKGRFTISRDNAKNTVYLQMNSLKPEDTAVYYCAARDYWGQGTQVTVSS | high polyreactivity |
| QVQLVESGGGLVQAGGSLRLSCAASGSTVYRYTMGWYRQAPGKERELVAAISRSGGRTYYADSVKGRFTISRDNAKNTVYLQMNSMKPEDTAVDYCNAEIAASAVQAQEGEFWGQGTQVTVSS | high polyreactivity |
| QVQLVESGGGLVQAGGSLRLSCAASGSTVYTNAMGWYRQAPGKERELVAAISSSGDSTYYADSVKGRFTISRDNAKNTVYLQMNSLKPEDTAVYYCAADKYLSYDFWGQGTQVTVSS | low polyreactivity |
| QVQLVESGGGLVQAGGSLRLSCAASGSTVYYNAMGWYRQAPGKEREFVAAINCRGGSTYYADSVKGRFTISRDNSKNTVYLQMNSLKPEDTAVYYCAAEEPSTYYYVRSGYDYHFWEMYSWGQGTQVTVSS | low polyreactivity |
